Patent publication US20230406885A1, “CYCLIC PEPTIDES FOR TRAPPING INTERLEUKIN-1 BETA” (MERCK SHARP & DOHME LLC, priority 2022, published 2023)
*1 amine or outer side, *2 acyl side, *3 side chain or, on linkers, in order; H or OH if unused. [ ]: non-standard residue; d: D form. 3AzaPhe4AcPip = (S)-3-(6-(4-acetylpiperazin-1-yl)pyridin-3-yl)-2-aminopropanoic acid, CC(=O)N1CCN(c2ccc(C[C@H](N[*:1])C(=O)[*:2])cn2)CC1; Trp(4-Cl)(βS-Me) = C[C@@H](c1c[nH]c2cccc(Cl)c12)[C@H](N)C(=O)O; Pro(trans-4-NH2) = O=C([C@@H]1C[C@@H](N[*:3])CN1[*:1])[*:2]; Bip(4'-COOH) = N[C@@H](Cc1ccc(-c2ccc(C(=O)O)cc2)cc1)C(=O)O; Phe(3-CH2NH2) = O=C([C@H](Cc1cccc(CN[*:3])c1)N[*:1])[*:2]; 1Nal(3S-Me) = C[C@@H](c1cccc2ccccc12)[C@H](N)C(=O)O; Phe(4-COOH) = N[C@@H](Cc1ccc(C(=O)O)cc1)C(=O)O; Phe(4-CH2NH2) = NCc1ccc(C[C@H](N)C(=O)O)cc1; Phe(3-NH2) = Nc1cccc(C[C@H](N)C(=O)O)c1; Phe(4-NH2) = Nc1ccc(C[C@H](N)C(=O)O)cc1; hTyr = N[C@@H](CCc1ccc(O)cc1)C(=O)O; dDab = NCC[C@@H](N)C(=O)O; Orn = NCCC[C@H](N)C(=O)O; dNMeA = CN[C@H](C)C(=O)O; Dap = NC[C@H](N)C(=O)O

Target: Recombinant human IL-1β (BioLegend 579404) (human, UniProt P01584 117-269)
Assay: cell-based or functional assay

| Binder | MRC5 IC50 |
| --- | --- |
| cyclo([Bip(4'-COOH)]W[Phe(4-COOH)]G[Pro(trans-4-NH2)][Trp(4-Cl)(βS-Me)]D[dNMeA]G[Bip(4'-COOH)]WG[dDab][hTyr]) (SMILES C[C@@H]1C(=O)NCC(=O)N[C@@H](Cc2ccc(-c3ccc(C(=O)O)cc3)cc2)C(=O)N[C@@H](Cc2c[nH]c3ccccc23)C(=O)NCC(=O)N[C@H](CCN)C(=O)N[C@@H](CCc2ccc(O)cc2)C(=O)N[C@@H](Cc2ccc(-c3ccc(C(=O)O)cc3)cc2)C(=O)N[C@@H](Cc2c[nH]c3ccccc23)C(=O)N[C@@H](Cc2ccc(C(=O)O)cc2)C(=O)NCC(=O)N2C[C@H](N)C[C@H]2C(=O)N[C@@H]([C@@H](C)c2c[nH]c3cccc(Cl)c23)C(=O)N[C@@H](CC(=O)O)C(=O)N1C) [SEQ ID NO: 54] | 69.2 pM |
| cyclo([Bip(4'-COOH)]W[Phe(4-COOH)]G[Pro(trans-4-NH2)][Trp(4-Cl)(βS-Me)]E[dNMeA]G[Bip(4'-COOH)]WG[dDab][hTyr]) (SMILES C[C@@H]1C(=O)NCC(=O)N[C@@H](Cc2ccc(-c3ccc(C(=O)O)cc3)cc2)C(=O)N[C@@H](Cc2c[nH]c3ccccc23)C(=O)NCC(=O)N[C@H](CCN)C(=O)N[C@@H](CCc2ccc(O)cc2)C(=O)N[C@@H](Cc2ccc(-c3ccc(C(=O)O)cc3)cc2)C(=O)N[C@@H](Cc2c[nH]c3ccccc23)C(=O)N[C@@H](Cc2ccc(C(=O)O)cc2)C(=O)NCC(=O)N2C[C@H](N)C[C@H]2C(=O)N[C@@H]([C@@H](C)c2c[nH]c3cccc(Cl)c23)C(=O)N[C@@H](CCC(=O)O)C(=O)N1C) [SEQ ID NO: 55] | 49.3 pM |
| cyclo([Bip(4'-COOH)]W[Phe(4-COOH)]G[Pro(trans-4-NH2)][Trp(4-Cl)(βS-Me)]D[dNMeA]G[Bip(4'-COOH)]W[Dap][dA][hTyr]) (SMILES C[C@@H]1C(=O)NCC(=O)N[C@@H](Cc2ccc(-c3ccc(C(=O)O)cc3)cc2)C(=O)N[C@@H](Cc2c[nH]c3ccccc23)C(=O)N[C@@H](CN)C(=O)N[C@H](C)C(=O)N[C@@H](CCc2ccc(O)cc2)C(=O)N[C@@H](Cc2ccc(-c3ccc(C(=O)O)cc3)cc2)C(=O)N[C@@H](Cc2c[nH]c3ccccc23)C(=O)N[C@@H](Cc2ccc(C(=O)O)cc2)C(=O)NCC(=O)N2C[C@H](N)C[C@H]2C(=O)N[C@@H]([C@@H](C)c2c[nH]c3cccc(Cl)c23)C(=O)N[C@@H](CC(=O)O)C(=O)N1C) [SEQ ID NO: 53] | 41.8 pM |
| cyclo([Bip(4'-COOH)]W[Phe(4-COOH)]G[Pro(trans-4-NH2)][Trp(4-Cl)(βS-Me)]D[dNMeA]G[Bip(4'-COOH)][Phe(3-NH2)]S[dA][hTyr]) (SMILES C[C@@H]1C(=O)NCC(=O)N[C@@H](Cc2ccc(-c3ccc(C(=O)O)cc3)cc2)C(=O)N[C@@H](Cc2cccc(N)c2)C(=O)N[C@@H](CO)C(=O)N[C@H](C)C(=O)N[C@@H](CCc2ccc(O)cc2)C(=O)N[C@@H](Cc2ccc(-c3ccc(C(=O)O)cc3)cc2)C(=O)N[C@@H](Cc2c[nH]c3ccccc23)C(=O)N[C@@H](Cc2ccc(C(=O)O)cc2)C(=O)NCC(=O)N2C[C@H](N)C[C@H]2C(=O)N[C@@H]([C@@H](C)c2c[nH]c3cccc(Cl)c23)C(=O)N[C@@H](CC(=O)O)C(=O)N1C) [SEQ ID NO: 50] | 520 pM |
| cyclo([Bip(4'-COOH)]W[Phe(4-COOH)]G[Pro(trans-4-NH2)][Trp(4-Cl)(βS-Me)]D[dNMeA]G[Bip(4'-COOH)][Phe(3-CH2NH2)]S[dA][hTyr]) (SMILES C[C@@H]1C(=O)NCC(=O)N[C@@H](Cc2ccc(-c3ccc(C(=O)O)cc3)cc2)C(=O)N[C@@H](Cc2cccc(CN)c2)C(=O)N[C@@H](CO)C(=O)N[C@H](C)C(=O)N[C@@H](CCc2ccc(O)cc2)C(=O)N[C@@H](Cc2ccc(-c3ccc(C(=O)O)cc3)cc2)C(=O)N[C@@H](Cc2c[nH]c3ccccc23)C(=O)N[C@@H](Cc2ccc(C(=O)O)cc2)C(=O)NCC(=O)N2C[C@H](N)C[C@H]2C(=O)N[C@@H]([C@@H](C)c2c[nH]c3cccc(Cl)c23)C(=O)N[C@@H](CC(=O)O)C(=O)N1C) [SEQ ID NO: 48] | 41 pM |
| cyclo([3AzaPhe4AcPip]W[Phe(4-COOH)]G[Pro(trans-4-NH2)][1Nal(3S-Me)]D[dNMeA]G[Bip(4'-COOH)]W[Dap][dA][hTyr]) (SMILES CC(=O)N1CCN(c2ccc(C[C@@H]3NC(=O)[C@H](CCc4ccc(O)cc4)NC(=O)[C@@H](C)NC(=O)[C@H](CN)NC(=O)[C@H](Cc4c[nH]c5ccccc45)NC(=O)[C@H](Cc4ccc(-c5ccc(C(=O)O)cc5)cc4)NC(=O)CNC(=O)[C@@H](C)N(C)C(=O)[C@H](CC(=O)O)NC(=O)[C@H]([C@@H](C)c4cccc5ccccc45)NC(=O)[C@@H]4C[C@@H](N)CN4C(=O)CNC(=O)[C@H](Cc4ccc(C(=O)O)cc4)NC(=O)[C@H](Cc4c[nH]c5ccccc45)NC3=O)cn2)CC1) [SEQ ID NO: 5] | 674 pM |
| cyclo([Bip(4'-COOH)]W[Phe(4-COOH)]G[Pro(trans-4-NH2)][Trp(4-Cl)(βS-Me)]D[dNMeA]G[Bip(4'-COOH)]KS[dA][hTyr]) (SMILES C[C@@H]1C(=O)NCC(=O)N[C@@H](Cc2ccc(-c3ccc(C(=O)O)cc3)cc2)C(=O)N[C@@H](CCCCN)C(=O)N[C@@H](CO)C(=O)N[C@H](C)C(=O)N[C@@H](CCc2ccc(O)cc2)C(=O)N[C@@H](Cc2ccc(-c3ccc(C(=O)O)cc3)cc2)C(=O)N[C@@H](Cc2c[nH]c3ccccc23)C(=O)N[C@@H](Cc2ccc(C(=O)O)cc2)C(=O)NCC(=O)N2C[C@H](N)C[C@H]2C(=O)N[C@@H]([C@@H](C)c2c[nH]c3cccc(Cl)c23)C(=O)N[C@@H](CC(=O)O)C(=O)N1C) [SEQ ID NO: 45] | 174 pM |

Other lines, results leading:

| MRC5 IC50 | Binder |
| --- | --- |
| 454 pM | cyclo([Bip(4'-COOH)]W[Phe(4-COOH)]G[Pro(trans-4-NH2)][Trp(4-Cl)(βS-Me)]D[dNMeA]G[Bip(4'-COOH)][Phe(4-NH2)]S[dA][hTyr]) (SMILES C[C@@H]1C(=O)NCC(=O)N[C@@H](Cc2ccc(-c3ccc(C(=O)O)cc3)cc2)C(=O)N[C@@H](Cc2ccc(N)cc2)C(=O)N[C@@H](CO)C(=O)N[C@H](C)C(=O)N[C@@H](CCc2ccc(O)cc2)C(=O)N[C@@H](Cc2ccc(-c3ccc(C(=O)O)cc3)cc2)C(=O)N[C@@H](Cc2c[nH]c3ccccc23)C(=O)N[C@@H](Cc2ccc(C(=O)O)cc2)C(=O)NCC(=O)N2C[C@H](N)C[C@H]2C(=O)N[C@@H]([C@@H](C)c2c[nH]c3cccc(Cl)c23)C(=O)N[C@@H](CC(=O)O)C(=O)N1C) [SEQ ID NO: 52] |
| 320 pM | cyclo([Bip(4'-COOH)]W[Phe(4-COOH)]G[Pro(trans-4-NH2)][Trp(4-Cl)(βS-Me)]D[dNMeA]G[Bip(4'-COOH)][Phe(4-CH2NH2)]S[dA][hTyr]) (SMILES C[C@@H]1C(=O)NCC(=O)N[C@@H](Cc2ccc(-c3ccc(C(=O)O)cc3)cc2)C(=O)N[C@@H](Cc2ccc(CN)cc2)C(=O)N[C@@H](CO)C(=O)N[C@H](C)C(=O)N[C@@H](CCc2ccc(O)cc2)C(=O)N[C@@H](Cc2ccc(-c3ccc(C(=O)O)cc3)cc2)C(=O)N[C@@H](Cc2c[nH]c3ccccc23)C(=O)N[C@@H](Cc2ccc(C(=O)O)cc2)C(=O)NCC(=O)N2C[C@H](N)C[C@H]2C(=O)N[C@@H]([C@@H](C)c2c[nH]c3cccc(Cl)c23)C(=O)N[C@@H](CC(=O)O)C(=O)N1C) [SEQ ID NO: 51] |
| 402 pM | cyclo([Bip(4'-COOH)]W[Phe(4-COOH)]G[Pro(trans-4-NH2)][Trp(4-Cl)(βS-Me)]D[dNMeA]G[Bip(4'-COOH)][Orn]S[dA][hTyr]) (SMILES C[C@@H]1C(=O)NCC(=O)N[C@@H](Cc2ccc(-c3ccc(C(=O)O)cc3)cc2)C(=O)N[C@@H](CCCN)C(=O)N[C@@H](CO)C(=O)N[C@H](C)C(=O)N[C@@H](CCc2ccc(O)cc2)C(=O)N[C@@H](Cc2ccc(-c3ccc(C(=O)O)cc3)cc2)C(=O)N[C@@H](Cc2c[nH]c3ccccc23)C(=O)N[C@@H](Cc2ccc(C(=O)O)cc2)C(=O)NCC(=O)N2C[C@H](N)C[C@H]2C(=O)N[C@@H]([C@@H](C)c2c[nH]c3cccc(Cl)c23)C(=O)N[C@@H](CC(=O)O)C(=O)N1C) [SEQ ID NO: 49] |
| 134 pM | cyclo([Bip(4'-COOH)]W[Phe(4-COOH)]G[Pro(trans-4-NH2)][Trp(4-Cl)(βS-Me)]D[dNMeA]G[Bip(4'-COOH)]KS[dDab][hTyr]) (SMILES C[C@@H]1C(=O)NCC(=O)N[C@@H](Cc2ccc(-c3ccc(C(=O)O)cc3)cc2)C(=O)N[C@@H](CCCCN)C(=O)N[C@@H](CO)C(=O)N[C@H](CCN)C(=O)N[C@@H](CCc2ccc(O)cc2)C(=O)N[C@@H](Cc2ccc(-c3ccc(C(=O)O)cc3)cc2)C(=O)N[C@@H](Cc2c[nH]c3ccccc23)C(=O)N[C@@H](Cc2ccc(C(=O)O)cc2)C(=O)NCC(=O)N2C[C@H](N)C[C@H]2C(=O)N[C@@H]([C@@H](C)c2c[nH]c3cccc(Cl)c23)C(=O)N[C@@H](CC(=O)O)C(=O)N1C) [SEQ ID NO: 46] |
| 124 pM | cyclo([Bip(4'-COOH)]W[Phe(4-COOH)]G[Pro(trans-4-NH2)][Trp(4-Cl)(βS-Me)]D[dNMeA]G[Bip(4'-COOH)]KS[dS][hTyr]) (SMILES C[C@@H]1C(=O)NCC(=O)N[C@@H](Cc2ccc(-c3ccc(C(=O)O)cc3)cc2)C(=O)N[C@@H](CCCCN)C(=O)N[C@@H](CO)C(=O)N[C@H](CO)C(=O)N[C@@H](CCc2ccc(O)cc2)C(=O)N[C@@H](Cc2ccc(-c3ccc(C(=O)O)cc3)cc2)C(=O)N[C@@H](Cc2c[nH]c3ccccc23)C(=O)N[C@@H](Cc2ccc(C(=O)O)cc2)C(=O)NCC(=O)N2C[C@H](N)C[C@H]2C(=O)N[C@@H]([C@@H](C)c2c[nH]c3cccc(Cl)c23)C(=O)N[C@@H](CC(=O)O)C(=O)N1C) [SEQ ID NO: 47] |
